Stoichiometry N, stoichiometry N (GfoA per GfoR (2:2)) and binding data for three substances are collected here from publication PMC3121763.

The stoichiometry N is a count of units in the complex or per binding partner.

Data set [1] concerns the target 6xHis-tagged Gifsy-1 prophage repressor GfoR (Salmonella enterica serovar Typhimurium strain ATCC14028, prophage Gifsy-1). Put plainly: SEC; Sephadex G75 column in IPE buffer (Tris-HCl 20 mM pH 8, NaCl 500 mM, Igepal 0.1%, imidazole 250 mM); about 10 ug of Ni-NTA-purified repressor (cells grown without arabinose) or co-expressed, co-purified repressor-antirepressor complex (with arabinose); calibrated with alpha-chymotrypsin, ovalbumin and BSA; fractions on SDS gel. In general terms: Size exclusion chromatography separates by hydrodynamic size, large species first.

Data set [2] has as its system T1, GtgR (Gifsy-2 phage repressor; also written GftR) (Salmonella enterica ATCC14028, Gifsy-2 prophage), ORF:1b72f8f1.
T1 sequence: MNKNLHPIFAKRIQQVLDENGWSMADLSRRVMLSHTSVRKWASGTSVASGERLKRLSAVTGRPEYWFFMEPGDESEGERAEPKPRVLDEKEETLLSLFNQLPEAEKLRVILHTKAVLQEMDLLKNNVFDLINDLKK
Briefly: EMSA. The settings on record: 20 mM Tris-HCl pH 7.5, 50 mM NaCl, 0.2 mM EDTA (5x stock in Methods: 1 mM), 1 mM MgCl2, 5% glycerol, PMSF, 50 ug/mL sonicated salmon sperm DNA; room …. In general terms: A gel shift assay detects complexes by their altered migration in electrophoresis.

“6xHis-tagged Gifsy-1 prophage repressor GfoR (natural protein)”: the stoichiometry N in data set [1] is 2.
“3xFLAG-tagged Gifsy-1 antirepressor GfoA (natural protein)” displayed a stoichiometry N (GfoA per GfoR (2:2)) in data set [1] of 1.
On to “GTTCGCCGATGCTCATTTGAGTCATGTGGTTACTGATTTTGATTTTTAATTGGTTGTCCATTTGGCTCTCCAGTTCTACGAGTTGGTAGCTGGAGATTATCACGTAAAACTTTAGGTTCCAACAAAAATCAATCTAATAGTTCCAATGAATAAAGAAACTGAAGGTTGTAAAATGTGAATATGAACAAAAATCTTCATCCCATTTTCGCCAAGCGTATCCAGCAAGTTCTGGATGAGAACGGCTGGTCTATGGCTGACCTCTCACGG (double strand) [Gifsy-2 right operator fragment (267 bp)]”, for which, in data set [2], the binding result is “binds”.
